Laboratory results as given in US20220332776A1, “ANTIBODY […] INDUCED DIMERIZERS (AbCID) AS MOLECULAR […] AND USES THEREOF” (The Regents of the University of California, priority 2019, published 2022).

Experiments:
[1] = test system: scFab-TC1-eGFP fusion protein; assay: IMiD-induced degradation of scFab-TC1-eGFP in HEK 293T cells, flow cytometry for GFP fluorescence; format: cell-based; settings: HEK 293T cells transfected with scFab-TC1-eGFP; 1000 nM, 100 nM or 10 nM for 20 hours; GFP fluorescence intensity
Experimental: Fab TC1 was converted into a previously described single-chain Fab construct using Gibson cloning (Hornsby, et al., Mol. Cell. Proteomics, 14:2833-2847 (2015)) and subsequently fused to eGFP by Gibson cloning into a pcDNA3.1 vector to produce an expression vector encoding an scTC1-eGFP fusion protein.
K562 and HEK293T cells utilized were from frozen stocks maintained by the Wells lab. The cell lines were not authenticated before use. No test for mycoplasma contamination was performed. Cells expressing scTC1-eGFP were transfected with FugeneHD transfection reagent purchased from Promega using the manufacturer's protocol. Unless otherwise noted all Jurkat and K562 cells lines were cultured in RPMI supplemented with 10% FBS and 1× Pen/Strep. CD19^+ K562 cells were maintained in puromycin (2 μg/mL). HEK293T cells containing the Gal4-UAS-Fluc operon were maintained in High Glucose DMEM supplemented with 10% FBS, 1× Pen/Strep, and puromycin (2 μg/mL). All cell lines were cultured at 37° C. under 5% CO2.
HEK 293T cells (ATCC® CRL-3216™) were transfected to express scFab-TC1-eGFP. Transfected cells were treated with thalidomide, lenalidomide, or pomalidomide at 1000 nM, 100 nM, or 10 nM for 20 hours, after which GFP fluorescence intensity was measured by flow cytometry. Treatment with DMSO was included as a negative control.

[2] = target: T1, pomalidomide-bound cereblon IMiD-binding domain (Pongo abelii (Sumatran orangutan) …, UniProt Q5R6Y2 306-414, biotinylated on its AviTag); assay: Fab-phage competition ELISA (OD450): binding to immobilized IMiD-bound cereblon IMiD-binding domain with 20 nM soluble competitor divided by binding without competitor
T1 construct: not shown: TEV cut site, AviTag and HIS6 tag fused to the domain
T1 sequence: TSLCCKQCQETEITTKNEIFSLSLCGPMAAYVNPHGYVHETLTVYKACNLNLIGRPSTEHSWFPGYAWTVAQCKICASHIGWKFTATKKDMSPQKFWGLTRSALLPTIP

[3] = target: T2, cereblon IMiD-binding domain (Homo sapiens, UniProt Q96SW2); assay: Biolayer interferometry binding kinetics of Fabs to cereblon IMiD-binding domain; settings: for binding to the cereblon IMiD-binding domain alone: absence of IMiD
T2 construct: TEV cut site; HIS6 tag; made in house; host or cells: E. coli BL21(DE3)
Experimental: Biolayer interferometery data were measured using an Octet RED384 instrument (ForteBio). Biotinylated cereblon was immobilized on a Streptavidin (SA) biosensor using a 200 nM solution. Serial dilutions of Fabs in kinetics buffer (PBS, pH 7.4, 0.05% Tween-20, 0.2% BSA, 10 μM biotin) with IMiD (1 μM) or vehicle (0.05% DMSO) were used as analyte. Affinity (KD) and kinetic parameters (kon and koff) were calculated from a global fit (1:1) of the data using the Octet RED384 software.
(§1) The unique Fabs from Example 1 were sub-cloned into a bacterial expression vector, expressed, and purified (Hornsby, et al., Mol. Cell. Proteomics, 14:2833-2847 (2015)). […] To further profile the Fabs, we characterized the kinetics of cereblon IMiD-binding domain binding for Fab-TC2 and Fab-PC1 in the presence or absence of their respective IMiD by biolayer interferometry (FIGS. 3A and 3B) (Shah, et al., J. Vis. Exp., e51383 (2014)).

[4] = target: T3, cereblon IMiD-binding domain (SEQ ID NO: 25) (Homo sapiens, UniProt Q96SW2); assay: Fab ELISA with cereblon IMiD-binding domain in the presence or absence of IMiD; settings: thalidomide, lenalidomide or pomalidomide, FIG. 2G
T3 construct: TEV cut site; HIS6 tag; made in house; host or cells: E. coli BL21(DE3)
Experimental: ELISAs were performed according to standard protocols. […] 20 nM of biotinylated cereblon was captured on the NeutrAvidin-coated wells for 30 minutes followed by the addition of various concentrations of Fab with either 5 μM thalidomide, lenalidomide, or pomalidomide or 0.05% DMSO for 30 minutes. The bound Fabs were then detected using a horseradish peroxidase (HRP)-conjugated anti-Fab monoclonal antibody (Jackson ImmunoResearch 109-036-097).
as §1

[5] = in the presence of lenalidomide
[6] = in the presence of pomalidomide

Molecule: Nc1cccc2c1C(=O)N(C1CCC(=O)NC1=O)C2=O (stereo not drawn) [pomalidomide]
- GFP expression compared to the DMSO control [1]: reduced GFP expression

Molecule: O=C1CCC(N2C(=O)c3ccccc3C2=O)C(=O)N1 (stereo not drawn) [thalidomide]
- GFP expression compared to the DMSO control [1]: reduced GFP expression

Molecule: Nc1cccc2c1CN(C1CCC(=O)NC1=O)C2=O (stereo not drawn) [lenalidomide]
- GFP expression compared to the DMSO control [1]: reduced GFP expression

B1: Fab-PC1 (Fab)
heavy: EISEVQLVESGGGLVQPGGSLRLSCAASGFNVSSYSIHWVRQAPGKGLEWVASISSYSGSTSYADSVKGRFTISADTSKNTAYLQMNSLRAEDTAVYYCARSYFVEYYYYYGWPWGLDYWGQGTLVTVSSASTKGPSVFPLAPSSKSTSGGTAALGCLVKDYFPEPVTVSWNSGALTSGVHTFPAVLQSSGLYSLSSVVTVPSSSLGTQTYICNVNHKPSNTKVDKKVEPKSCDKTHTGGSHHHHHH
light: SDIQMTQSPSSLSASVGDRVTITCRASQSVSSAVAWYQQKPGKAPKLLIYSASSLYSGVPSRFSGSRSGTDFTLTISSLQPEDFATYYCQQSSYSYLFTFGQGTKVEIKRTVAAPSVFIFPPSDSQLKSGTASVVCLLNNFYPREAKVQWKVDNALQSGNSQESVTEQDSKDSTYSLSSTLTLSKADYEKHKVYACEVTHQGLSSPVTKSFNRGECGGSDYKDDDDK
notes: chains assembled here by putting the CDRs in place of the scaffold's own CDR stretches; also called Fab-phage clone PC1
- competition selectivity ratio [2]: < 0.5

B2: Fab-PC1: Fab-phage clone from pomalidomide-cereblon IMiD-binding domain selection; CDRs SEQ ID NO: 4, 9, 14, 21, 22, 19 (antibody)
heavy: B1 heavy
light: B1 light
- binding to the cereblon IMiD-binding domain alone [3]: no significant binding
- binding to the cereblon IMiD-binding domain [3, 5]: potent and reversible binding
- binding to the cereblon IMiD-binding domain [3, 6]: potent and reversible binding
- binding to the cereblon IMiD-binding domain ([3]; in the presence of thalidomide): potent and reversible binding

B3: Fab-TC2: Fab-phage clone from thalidomide-cereblon IMiD-binding domain selection; CDRs SEQ ID NO: 2, 7, 12, 21, 22, 17 (antibody)
heavy: EISEVQLVESGGGLVQPGGSLRLSCAASGFNVSSSSIHWVRQAPGKGLEWVASIYSYYGSTYYADSVKGRFTISADTSKNTAYLQMNSLRAEDTAVYYCARTDSWYYYRYGGMDYWGQGTLVTVSSASTKGPSVFPLAPSSKSTSGGTAALGCLVKDYFPEPVTVSWNSGALTSGVHTFPAVLQSSGLYSLSSVVTVPSSSLGTQTYICNVNHKPSNTKVDKKVEPKSCDKTHTGGSHHHHHH
light: SDIQMTQSPSSLSASVGDRVTITCRASQSVSSAVAWYQQKPGKAPKLLIYSASSLYSGVPSRFSGSRSGTDFTLTISSLQPEDFATYYCQQYSWWWMPITFGQGTKVEIKRTVAAPSVFIFPPSDSQLKSGTASVVCLLNNFYPREAKVQWKVDNALQSGNSQESVTEQDSKDSTYSLSSTLTLSKADYEKHKVYACEVTHQGLSSPVTKSFNRGECGGSDYKDDDDK
- binding to the cereblon IMiD-binding domain bound to a different IMiD than the one used for selection [4]: all except one of the Fabs (Fab-phage clone TC2) was able to bind
- binding to the cereblon IMiD-binding domain alone [3]: no significant binding
- binding compared to binding in the presence of thalidomide [3, 5]: less potent binding
- binding to the cereblon IMiD-binding domain [3, 5]: potent and reversible binding
- binding compared to binding in the presence of thalidomide [3, 6]: less potent binding
- binding to the cereblon IMiD-binding domain [3, 6]: potent and reversible binding
- binding to the cereblon IMiD-binding domain ([3]; in the presence of thalidomide): potent and reversible binding
